In paper PMC6751061 one finds binding signal (fold lower affinity) and binding data, which are given here for two sequences.

The data set addresses T1, LexA (Bacillus subtilis 3610) (UniProt P31080).
T1 sequence: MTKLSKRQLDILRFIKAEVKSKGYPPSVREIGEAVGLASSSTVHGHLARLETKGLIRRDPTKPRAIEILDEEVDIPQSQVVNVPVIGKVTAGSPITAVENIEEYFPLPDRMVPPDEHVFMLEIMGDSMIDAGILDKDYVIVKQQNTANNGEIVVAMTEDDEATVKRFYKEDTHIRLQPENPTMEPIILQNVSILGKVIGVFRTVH
Briefly: EMSA. Conditions: EMSA: 4 nM 32P probe, LexA 1-500 nM, binding buffer as printed (likely 5x stock): 100 mM HEPES pH 7.5, 100 mM Tris-HCl, 50% glycerol, 500 mM NaCl, 10 mM EDTA …. Background: In EMSA bound probe runs differently from free probe, usually more slowly.

Consider “AGGAGGGATCCTCTATATTGCTATTTCATGTTGGTGGATACAAGTAAAACCAAAATTTCCATATCCATCAGACTTAATGATTTTATCTAGAGAAATAGAAACGTAAACGAAAAAAATATTATTTTTTTAACTTTTTGTTTGAGCCTTTTTACAGATTGGAAGTCTTCAGAATAGGTCTTTTTTGGTAGTACTTACAATAATTATTATATTACATAAGTACTAGATCGTACACGAATTCCTCCT (double strand) [PsigNDN]”, for which the binding signal (fold lower affinity) was 500.

For the sequence “CCTGACGATCACTCATTCTATTTTTTCCTCCTTTATGTTACCACTACATATACTATACCCTGTTTGAAGGGATTTGCCAAGAAAAAAGCGAACGCATATTCGGATTTTTTCTTGGCGTGATTCCTATCAAAATATCATAATGTATCAGAGAAATCATGTTTTCTTAGGAGGATAATGTGCTG (double strand) [PrecA]”, the binding result is listed as “binds”.
